Assay: yeast display, Sf9 membrane polyspecificity reagent, FACS + sequencing; frameworks hold sequencing errors
Summary of the method: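 A nanobody's polyreactivity label depends on the gate it was sorted from. Yeast display cells were stained with 10% biotinylated, detergent-solubilized Sf9 membrane reagent for 1 hour at 4 °C, enriched on streptavidin microbeads and sorted by FACS. The low and high (top ~1%) gates were set on anti-HA fluorescence for expression and streptavidin fluorescence for reagent binding.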
With “QVQLVESGGGLVQAGGSLRLSCAASGSTFTTNAMGWYRQAPGKERELVAAISSGGRTYYADSVKGRFTISRDNAKNTVYLQMNRLKPEDTAVYYCAAEIYYSIYQGSRFYYRGQGTQVTVSS” the “polyreactivity (PSR sort gate)” value was “high polyreactivity”. With “QVQHVESCGGLVQAGGSLRLSCAASGSIFTYYAMGWYRQAPGKEREFVAAISRRGGSTYYADSVKGRFTISRDNAKNTVYLQMNSLKPEDTAVYYCNARYTGSSLYYWGQGTQVTVSS” the “polyreactivity (PSR sort gate)” value was “high polyreactivity”. For “QVQLVESGGGLVQAGGSLRLSCAASGFTFNWYAMGWYRQAPGKERELVAAINSSGGNTYYADSVKGRFTISRDTAKNTVYLQMNSLKPDDTAVYYCVFVYVYDYYYWGQGTQVTVSS”, the “polyreactivity (PSR sort gate)” value was “high polyreactivity”. For “QFQLVESGGGLVQAGGSLRLSCAASGFIFSTYTMGWYRQAPGKERELVAAISSGGGTYYADSVKGRFTISRDNAKNTVYLQMNSLKPEDTAVYYCAALVYSSYPAGWYDYWGQGTQVTVSS”, the “polyreactivity (PSR sort gate)” value was “high polyreactivity”. For “QVQLVESGGGLVQAGGSLRLSCAASGFTFDSNAMGWYIQAPGKERELVAAISTGGSTYYADSVKGRFTISRDNAKNTVYLQMNSLKPEDTAVYYCARDPPYPDTWYGYWGQGTQVTVSS”, the “polyreactivity (PSR sort gate)” value was “low polyreactivity”. With “QVQLVESGGGLVQAGGSLRLSCAASGRTFRVYAMGWYRQAPGKERELVAAIRRSGGSTYYADSVKGRFTISRDNAKNTVYLQMNSLKPEDTAVYYCAAYFYYWGSTFVRYEYWGLGTQVTVSS” the “polyreactivity (PSR sort gate)” value was “high polyreactivity”. For “QVQLEESGVGLVQAGGSLRLSCAASGSIFYYNAMGSYRQPHGKERDLVAAISWGDGITYYADSVKGRFTISRDNGKNSVYLPMNSLKPEDTAVYYWAVDYYYLPYEYWGKGTQVTVSS”, the “polyreactivity (PSR sort gate)” value was “high polyreactivity”. In the case of “QVQLVESGAGLVQAGGSLRLSCAASGFIFVKYAMGWYRQAPGKERELVAAISRSGGRTYYADSVKGRFTISRDNAKNNVYLQMNSLKPEDTAVYYCATDYYEDWRGYEDYWYRPYDYWGQGTQVTVSS”, the “polyreactivity (PSR sort gate)” value is reported as “high polyreactivity”. In the case of “QVQLLESGGRLVQAGGSLRLSCAPSGFIFISYALGWYRQAPGKERELDAAIDWRGGSSTYYADSVKGRFTISRDNAKNTVYFPMISLKPEDTAVYYCAAEGVTWYLWDFYDFYGYWGQGTQVTVSS”, the “polyreactivity (PSR sort gate)” value is reported as “high polyreactivity”. For “QVQLVESRGGLVQAGGSLRLTCAASGSTFAPNTMGWYRQAPGQERELVARITSSDGSTTYADSVKGRFTISRDNAKTTVYLQMNSLKPEHTAVYYCAADYGRRWGYDYWGQGTQVTVSS”, the “polyreactivity (PSR sort gate)” value was “low polyreactivity”. In the case of “QVQLVESGGDLVQAGGSLRLSCAASGITFRRYTMGWYRQAPGKERELVAAISSGGSTNYADSVKGRFTISRDNAKNTVYLQMNSLKPEDTAVYYCAATRRYIQYGYDYWGQGTQVTVSS”, the “polyreactivity (PSR sort gate)” value is reported as “high polyreactivity”. With “QVQLVESGGGLVQAGGSLLLSCAASGNTFYKYTMGWYRQAPGKERELVAVISSSSGSTYYADSVKGRFTISRDNAKNTVYLQMNSLKPEYTAVYYCKKRGWWDLRHYYWGQGTQVTVSS” the “polyreactivity (PSR sort gate)” value was “low polyreactivity”. For “QVQLVESGGGLVQAGGSLRLSCAASGSTFGGYAMGWYRQAPGKERELVASISGGTRTNYADSVKGRFTISRDNAKNTVYLQMNSLKPEDTAVYYCAAEVGLPTWYTLPVDDYDYWGQGTQVTVSS”, the “polyreactivity (PSR sort gate)” value was “low polyreactivity”. In the case of “QVQLVESGGGLVQAGGTLRLNSAASGRNFYDYAMRWYRQAPGKERELVASISGGGSTDYADSVKGRFTISRDNAKNTVDFQMNSLNPEDTAVYYCAAQYYLYRSRFDYWGQGTQVTVSS”, the “polyreactivity (PSR sort gate)” value is reported as “high polyreactivity”. In the case of “QVQLVETGGGLVQAGGSLRLSCAASGSIFIYYAMGWYRQAPGKERELVAAIRLSSGSTYYADSVKGRFTISRDNSKNTVYLQMIRLKPEYTAVYYCAARRKRPFSVYDHWGKGTQVTVSS”, the “polyreactivity (PSR sort gate)” value is reported as “high polyreactivity”. With “QVQLVESGGGLVQAGGSLRLSCAASGSTFKWYAMGWYRQAPGKERELVAAITVSGDSTYYADSVKGRFTISRDNAKNTVYLQMNSLKPEDTAVYYCAKDYQGITPYDYWGQGTQVTVSS” the “polyreactivity (PSR sort gate)” value was “low polyreactivity”. With “QVQLVESRGGLVPAGGSLRLSCAASGITFYHYAIGWYRQAPVKERELVAAISRSGGSTSYADSVKGRLTISRDNAKITVYLEMNSLIPEDTAVYYCAARLVRESEPLGYWGQGTQVTVSS” the “polyreactivity (PSR sort gate)” value was “high polyreactivity”. For “QFQLVESGGGLVQAGGSLRLRCAATGSNFYVYALGWYRQAPGKETELVAAIRRTGSSTYYADSVKGRFTMSRDNAKNTDYLQMNSLKPEDTAVYYCAARYWRARAGSYDYWGQGTQVTVSS”, the “polyreactivity (PSR sort gate)” value was “high polyreactivity”. In the case of “QVQLVESGGGLVQAGGSLRLSCAASGFIRGYYDMGWYRQAPGKERELVAAISSGGRTYYADSVKGRFTISRDNAKNTVYLQMNSLKPEDTAVYYFNAYAPRRRFDYWGQGTQVTVSS”, the “polyreactivity (PSR sort gate)” value is reported as “high polyreactivity”. For “QVQLVESGGGLVQAGGSLRLSCAASGRISWGYAMGWYRQAPGKERELVAVINFNGGRTYYADSVKGRFTISRDNAKNTVYLQMNSLKAEDTAVYYCAADSGYEYDYWGQGTQVTVSS”, the “polyreactivity (PSR sort gate)” value was “low polyreactivity”. In the case of “QVQLVESGGGLVQAGGRRRLSCAASGSTLRDYVMGWYRQAPGKERELVAAITGRVDDTYYADSVKGRFTISRDNAKNTVYLQMNSLKPEDTAGYYCAADYSVTLRIGGFYWFYAFDYWGQGSQVTVSS”, the “polyreactivity (PSR sort gate)” value is reported as “low polyreactivity”. For “QVQLVESGGGLVQAGGSLRLSCAASGFTFERYAMGWYRPAPGKDRELVAAITGSGGSTYYADSVKGRFTIARDNATNTVYLQMNSLKPEDTAFYYCARDSSLFRLRDYWGQGTQVTVSS”, the “polyreactivity (PSR sort gate)” value was “low polyreactivity”. In the case of “QVQLVESGGGLVQAGGSLRLSCAASGFVWNAMGWYRQAPGKERELVAAINWRGGSTNYADSVKGRFTISRDNAKNTVYLQMNSLKPEDTAVYYCAAYFFHYHFYQAAYDYWGQGTQVTVSS”, the “polyreactivity (PSR sort gate)” value is reported as “low polyreactivity”. For “QVQLVESGGGLVQAGGSLRLSCAASGRTFRFYDMGWYRQAPGKERELVAAISRGGGSTYYADSVKGRFTISRDNAKNTVYLQMNSLKPEDTAVYYCAAKPYKTRSSYWGDYYWGQGTQVTVSS”, the “polyreactivity (PSR sort gate)” value was “high polyreactivity”. With “QVQLVESGGGLVQAGGSLRLSCAASGSTFQRYAMGWYRQAPGKERELVAAISDGGSTKYADYVKGRFTISRDNAKNTVYLQMNRLKPEDTAVYYCAANYLSRYDYWGQGTQVTVSS” the “polyreactivity (PSR sort gate)” value was “low polyreactivity”. In the case of “QVQLVESGGGLVQAGGSLRLSCAASGSISVNAMVWDRQAPGKERELVAVINRSGGNTYYADSVKGRFTISRDNAKNTVYLQMNSLKPEDTAVYYCAAKWTRSYSRYDYWGQVTQVTVSS”, the “polyreactivity (PSR sort gate)” value is reported as “high polyreactivity”. With “QVQLVESGGGLVQAGGSLRLSCAPSGGTFVTYAMGWYIQAPGKERELVAAITTGGSTYYADSVKGRFTISRDNAKNTVYLQMNSLKPEDTAVYYCAAVYTGSGKRYYKGYYWGQGTQVTVSS” the “polyreactivity (PSR sort gate)” value was “low polyreactivity”. With “QVQLVESGGGLVQAGGSLRLSCAASGRIFYFNAMGWYRQAPGKEREFVASINSIGDSTYYADSVKGRFTISRDNAKNTVYLHMNSLKPEDTAVYYCNADHGVINYRLDYWGQGTQVTVSS” the “polyreactivity (PSR sort gate)” value was “low polyreactivity”. With “QVQLGESGGGLVLAGGSLRLSCAASGYIFRAYAMGWYRQAPGKERELVAAISSRGGSTYYADSVKGRFTSSRDYAKNTVYLQMNSLKPEDTEVYYCAAAYRQPYIGYGYWGQGTQVTVSS” the “polyreactivity (PSR sort gate)” value was “high polyreactivity”. With “QVQLVDSGGGLVQEGGRLRLSCAASGSIYDQYDMGWYRQAPGKERELVAAISNRGGCTYYADSVKGRFTISRDNAKNTVYLQMNSLKPEDTAVYYCAARKYWGYGTRYFYWGQGTQVTVSS” the “polyreactivity (PSR sort gate)” value was “high polyreactivity”.
